Results taken from US20110243941A1 (published 2011).

T1: soluble dimeric FcγRIIB-Fc fusion protein (human, UniProt P31994 43-217)
T1 construct: extracellular domain; also called FcRIIB-Fc; FcγRIIB-G2; not shown: hinge-CH2-CH3 domain of human IgG2
T1 sequence (looked up): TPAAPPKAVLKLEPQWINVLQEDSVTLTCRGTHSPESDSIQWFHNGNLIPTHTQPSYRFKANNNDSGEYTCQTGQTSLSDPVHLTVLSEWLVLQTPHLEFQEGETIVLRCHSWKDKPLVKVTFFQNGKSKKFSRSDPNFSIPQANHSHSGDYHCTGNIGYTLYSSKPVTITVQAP


Key:
FcγRIIIA 158V = biological target: T2, FcγRIIIA 158V (human, UniProt P08637 17-208, limits assumed); assay: BIAcore, ch4-4-20
T2 construct: valine at 158; also called 3aV158; CD16A 158V
T2 sequence (P08637 17-208 F176V limits assumed): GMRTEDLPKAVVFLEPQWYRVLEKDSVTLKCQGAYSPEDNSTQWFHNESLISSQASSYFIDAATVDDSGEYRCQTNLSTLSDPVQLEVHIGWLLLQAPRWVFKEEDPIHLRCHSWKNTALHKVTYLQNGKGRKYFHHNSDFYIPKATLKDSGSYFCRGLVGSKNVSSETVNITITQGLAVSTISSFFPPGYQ

[1] = biological target: T1, soluble dimeric FcγRIIB-Fc fusion …; assay: ELISA
[2] = biological target: T1, soluble dimeric FcγRIIB-Fc fusion …; assay: BIAcore

| Koff WT/Mut (FcγRIIIA 158V) | ELISA, OD [1] [OD] | Kd [2] [nM] | koff [2] [s⁻¹] | Binder |
| --- | --- | --- | --- | --- |
| 0.86 | – | – | – | ch 4-4-20 E293V, Q295E, A327T (antibody) EPKSCDKTHTCPPCPAPELLGGPSVFLFPPKPKDTLMISRTPEVTCVVVDVSHEDPEVKFNWYVDGVEVHNAKTKPRVEEYNSTYRVVSVLTVLHQDWLNGKEYKCKVSNKTLPAPIEKTISKAKGQPREPQVYTLPPSREEMTKNQVSLTCLVKGFYPSDIAVEWESNGQPENNYKTTPPVLDSDGSFFLYSKLTVDKSRWQQGNVFSCSVMHEALHNHYTQKSLSLSPGK |
| 1.23 | – | – | – | ch 4-4-20 Y319F, P352L, P396L (antibody) EPKSCDKTHTCPPCPAPELLGGPSVFLFPPKPKDTLMISRTPEVTCVVVDVSHEDPEVKFNWYVDGVEVHNAKTKPREEQYNSTYRVVSVLTVLHQDWLNGKEFKCKVSNKALPAPIEKTISKAKGQPREPQVYTLLPSREEMTKNQVSLTCLVKGFYPSDIAVEWESNGQPENNYKTTPLVLDSDGSFFLYSKLTVDKSRWQQGNVFSCSVMHEALHNHYTQKSLSLSPGK |
| – | 0.4 | 61.4 | 0.085 | chimeric 4-4-20 anti-fluorescein antibody, wild type Fc (antibody) chain 1: not shown chain 2: DVVMTQTPLSLPVSLGDQASISCRSSQSLVHSNGNTYLRWYLQKPGQSPKVLIYKVSNRFSGVPDRFSGSGSGTDFTLKISRVEAEDLGVYFCSQSTHVPWTFGGGTKLEIKRTVAAPSVFIFPPSDEQLKSGTASVVCLLNNFYPREAKVQWKVDNALQSGNSQESVTEQDSKDSTYSLSSTLTLSKADYEKHKVYACEVTHQGLSSPVTKSFNRGEC |
